US20180023071A1 (PRONASCI, published 2018)
Bridges are numbered along the chain shown (N, C = ends). Where no end group is shown, it is not given here.

Target: human Low Density Lipoprotein receptor (hLDL-R) (human, UniProt P01130 22-860)
Assay: cell-based or functional assay

human Low Density Lipoprotein receptor (hLDL-R), sequence (P01130 22-860): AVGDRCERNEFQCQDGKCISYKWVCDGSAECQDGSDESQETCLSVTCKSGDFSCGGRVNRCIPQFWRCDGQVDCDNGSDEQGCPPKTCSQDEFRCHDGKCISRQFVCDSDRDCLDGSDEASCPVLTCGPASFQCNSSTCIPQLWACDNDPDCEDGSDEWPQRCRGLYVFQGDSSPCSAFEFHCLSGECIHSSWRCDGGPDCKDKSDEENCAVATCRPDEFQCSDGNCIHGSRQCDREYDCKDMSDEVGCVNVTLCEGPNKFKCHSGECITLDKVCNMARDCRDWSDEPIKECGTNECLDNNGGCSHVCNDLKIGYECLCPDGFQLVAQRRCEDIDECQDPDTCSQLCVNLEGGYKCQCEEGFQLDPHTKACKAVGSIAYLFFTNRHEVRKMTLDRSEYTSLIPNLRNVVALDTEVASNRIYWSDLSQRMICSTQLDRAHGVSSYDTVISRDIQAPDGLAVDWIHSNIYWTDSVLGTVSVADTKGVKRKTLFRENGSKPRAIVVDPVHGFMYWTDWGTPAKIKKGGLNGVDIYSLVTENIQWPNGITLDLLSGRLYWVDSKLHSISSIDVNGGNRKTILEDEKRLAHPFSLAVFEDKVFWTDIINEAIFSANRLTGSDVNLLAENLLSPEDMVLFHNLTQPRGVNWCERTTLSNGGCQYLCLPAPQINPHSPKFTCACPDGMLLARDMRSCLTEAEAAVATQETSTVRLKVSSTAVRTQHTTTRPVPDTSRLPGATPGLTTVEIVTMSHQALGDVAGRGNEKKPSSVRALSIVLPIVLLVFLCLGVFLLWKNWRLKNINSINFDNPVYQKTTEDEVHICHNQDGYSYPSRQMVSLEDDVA

B1: CP3 (Loop-3 peptide), S-S bridged cyclic hPCSK9 365-384 (peptide)
peptide: GEDIIGASSDCSTCFVSQSG
modifications: disulfide 11-14
Which “LDL-R level in HepG2 cells (western blot, relative to TR), CP3 at 50 µM” value does the source give for B1 here?
Its value is about 3.5 fold.
